Patent US20230416411A1 (Hoffmann-La Roche, published 2023)

Experiments:
[1] = biological target: TYRP1 on the primary melanoma cell line M150543 (human, UniProt P17643 25-537); assay: cell-based or functional assay
[2] = biological target: T1, EGFRvIII expressed on the cell surface (CHO-EGFRvIII, DK-MG, U87MG-EGFRvIII cells) (human, UniProt P00533 298-1210); assay: flow cytometry on U87MG-EGFRvIII cells, IgG PGLALA
T1 construct: also called EGFRvIII on cells
Procedure: (§1) Cells used for binding experiments were harvested, washed with PBS and resuspended in FACS buffer. The antibody staining was performed in a 96-well round bottom plate. Cells were harvested, counted and 100 000 to 200 000 cells were seeded per well. The plate was centrifuged for 4 min at 400×g and the supernatant was removed. The test antibodies were diluted in FACS buffer and 20 μl of the antibody solution were added to the cells for 30 min at 4° C. To remove unbound antibody the cells were washed twice with FACS buffer before addition of the diluted secondary antibody PE-conjugated AffiniPure F(ab′)2 Fragment goat anti-human IgG Fcg Fragment Specific (Jackson ImmunoResearch, #109-116-170 or #109-116-098). After 30 min incubation on 4° C. unbound secondary antibody was washed away. Before measurement the cells were resuspended in 200 μl FACS buffer and analyzed by flow cytometry using BD Canto II or BD FACS Fortessa.

[3] = biological target: T1, EGFRvIII expressed on the cell surface …; assay: flow cytometry on U87MG-EGFRvIII cells, labelled anti-human Fc secondary antibody
Procedure: as §1

B1: TYRP1 TCB CD3opt (bispecific antibody, human IgG1, kappa, L234A L235A)
heavy 1: not shown
heavy 2: QVQLVQSGAEVKKPGASVKVSCKASGFNIKDYFLHWVRQAPGQGLEWMGWINPDNGNTVYAQKFQGRVTMTADTSTSTVYMELSSLRSEDTAVYYCTRRDYTYEKAALDYWGQGTLVTVSSASTKGPSVFPLAPSSKSTSGGTAALGCLVEDYFPEPVTVSWNSGALTSGVHTFPAVLQSSGLYSLSSVVTVPSSSLGTQTYICNVNHKPSNTKVDEKVEPKSCDKTHTCPPCPAPEAAGGPSVFLFPPKPKDTLMISRTPEVTCVVVDVSHEDPEVKFNWYVDGVEVHNAKTKPREEQYNSTYRVVSVLTVLHQDWLNGKEYKCKVSNKALGAPIEKTISKAKGQPREPQVCTLPPSRDELTKNQVSLSCAVKGFYPSDIAVEWESNGQPENNYKTTPPVLDSDGSFFLVSKLTVDKSRWQQGNVFSCSVMHEALHNHYTQKSLSLSP
light 1: DIQMTQSPSSLSASVGDRVTITCRASGNIYNYLAWYQQKPGKVPKLLIYDAKTLADGVPSRFSGSGSGTDFTLTISSLQPEDVATYYCQHFWSLPFTFGQGTKLEIKRTVAAPSVFIFPPSDRKLKSGTASVVCLLNNFYPREAKVQWKVDNALQSGNSQESVTEQDSKDSTYSLSSTLTLSKADYEKHKVYACEVTHQGLSSPVTKSFNRGEC
light 2: EVQLLESGGGLVQPGGSLRLSCAASGFQFSSYAMNWVRQAPGKGLEWVSRIRSKYNNYATYYADSVKGRFTISRDDSKNTLYLQMNSLRAEDTAVYYCVRHTTFPSSYVSYYGYWGQGTLVTVSSASVAAPSVFIFPPSDEQLKSGTASVVCLLNNFYPREAKVQWKVDNALQSGNSQESVTEQDSKDSTYSLSSTLTLSKADYEKHKVYACEVTHQGLSSPVTKSFNRGEC
- EC50 of tumor cell killing at 48 h, PBMC donor 1 [1]: 0.31 nM
- EC50 of tumor cell killing at 48 h, PBMC donor 2 [1]: 0.03 nM
- EC50 of tumor cell killing at 48 h, PBMC donor 3 [1]: 0.08 nM

B2: TYRP1 TCB CD3orig (bispecific antibody, human IgG1, kappa, L234A L235A)
heavy 1: not shown
heavy 2: QVQLVQSGAEVKKPGASVKVSCKASGFNIKDYFLHWVRQAPGQGLEWMGWINPDNGNTVYAQKFQGRVTMTADTSTSTVYMELSSLRSEDTAVYYCTRRDYTYEKAALDYWGQGTLVTVSSASTKGPSVFPLAPSSKSTSGGTAALGCLVEDYFPEPVTVSWNSGALTSGVHTFPAVLQSSGLYSLSSVVTVPSSSLGTQTYICNVNHKPSNTKVDEKVEPKSCDKTHTCPPCPAPEAAGGPSVFLFPPKPKDTLMISRTPEVTCVVVDVSHEDPEVKFNWYVDGVEVHNAKTKPREEQYNSTYRVVSVLTVLHQDWLNGKEYKCKVSNKALGAPIEKTISKAKGQPREPQVCTLPPSRDELTKNQVSLSCAVKGFYPSDIAVEWESNGQPENNYKTTPPVLDSDGSFFLVSKLTVDKSRWQQGNVFSCSVMHEALHNHYTQKSLSLSP
light 1: DIQMTQSPSSLSASVGDRVTITCRASGNIYNYLAWYQQKPGKVPKLLIYDAKTLADGVPSRFSGSGSGTDFTLTISSLQPEDVATYYCQHFWSLPFTFGQGTKLEIKRTVAAPSVFIFPPSDRKLKSGTASVVCLLNNFYPREAKVQWKVDNALQSGNSQESVTEQDSKDSTYSLSSTLTLSKADYEKHKVYACEVTHQGLSSPVTKSFNRGEC
light 2: EVQLLESGGGLVQPGGSLRLSCAASGFTFSTYAMNWVRQAPGKGLEWVSRIRSKYNNYATYYADSVKGRFTISRDDSKNTLYLQMNSLRAEDTAVYYCVRHGNFGNSYVSWFAYWGQGTLVTVSSASVAAPSVFIFPPSDEQLKSGTASVVCLLNNFYPREAKVQWKVDNALQSGNSQESVTEQDSKDSTYSLSSTLTLSKADYEKHKVYACEVTHQGLSSPVTKSFNRGEC
- EC50 of tumor cell killing at 48 h, PBMC donor 1 [1]: 0.44 nM
- EC50 of tumor cell killing at 48 h, PBMC donor 2 [1]: 0.05 nM
- EC50 of tumor cell killing at 48 h, PBMC donor 3 [1]: 0.14 nM

B3: EGFRvIII antibody P063.056, human IgG1 PGLALA (antibody, V domains shown)
VH: EVQLVQSGAEVKKPGESLKISCKGSGYSFDSYWIAWVRQMPGKGLEWMGVIHPYDSDTRYSPSFQGQVTISADKSISTAYLQWSSLKASDTAMYYCARVSRSSYAFDYWGQGTLVTVSS
VL: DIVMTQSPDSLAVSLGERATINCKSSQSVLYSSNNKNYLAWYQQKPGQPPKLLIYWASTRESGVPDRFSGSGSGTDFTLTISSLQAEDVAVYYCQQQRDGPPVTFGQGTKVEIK
notes: Anti-EGFRvIII PGLALA IgG
- EC50 (read off the curve) [2]: ~5 nM
- EC50 (read off the curve) [3]: ~4 nM

B4: EGFRvIII TCB P056.021 (CD3orig) (bispecific antibody, V domains shown)
VH 1: EVQLVQSGAEVKKPGESLKISCKGSGYSFDSYWIAWVRQMPGKGLEWMGVIHPYDSDTRYSPSFQGQVTISADKSISTAYLQWSSLKASDTAMYYCARVSRSSYAFDYWGQGTLVTVSS
VL 1: not shown
VH 2: not shown
VL 2: QAVVTQEPSLTVSPGGTVTLTCGSSTGAVTTSNYANWVQEKPGQAFRGLIGGTNKRAPGTPARFSGSLLGGKAALTLSGAQPEDEAEYYCALWYSNLWVFGGGTKLTVL
notes: also called parental EGFRvIII TCB P056.021; P056.021 EGFRvIII TCB with CD3orig
- EC50 (read off the curve) [3]: ~5 nM

B5: EGFRvIII TCB CD3orig (EGFRvIII binder P063.056) (bispecific antibody, human IgG1, kappa, L234A L235A)
heavy 1: not shown
heavy 2: EVQLVQSGAEVKKPGESLKISCKGSGYSFDSYWIAWVRQMPGKGLEWMGVIHPYDSDTRYSPSFQGQVTISADKSISTAYLQWSSLKASDTAMYYCARVSRSSYAFDYWGQGTLVTVSSASTKGPSVFPLAPSSKSTSGGTAALGCLVEDYFPEPVTVSWNSGALTSGVHTFPAVLQSSGLYSLSSVVTVPSSSLGTQTYICNVNHKPSNTKVDEKVEPKSCDKTHTCPPCPAPEAAGGPSVFLFPPKPKDTLMISRTPEVTCVVVDVSHEDPEVKFNWYVDGVEVHNAKTKPREEQYNSTYRVVSVLTVLHQDWLNGKEYKCKVSNKALGAPIEKTISKAKGQPREPQVCTLPPSRDELTKNQVSLSCAVKGFYPSDIAVEWESNGQPENNYKTTPPVLDSDGSFFLVSKLTVDKSRWQQGNVFSCSVMHEALHNHYTQKSLSLSP
light 1: not shown
light 2: EVQLLESGGGLVQPGGSLRLSCAASGFTFSTYAMNWVRQAPGKGLEWVSRIRSKYNNYATYYADSVKGRFTISRDDSKNTLYLQMNSLRAEDTAVYYCVRHGNFGNSYVSWFAYWGQGTLVTVSSASVAAPSVFIFPPSDEQLKSGTASVVCLLNNFYPREAKVQWKVDNALQSGNSQESVTEQDSKDSTYSLSSTLTLSKADYEKHKVYACEVTHQGLSSPVTKSFNRGEC
notes: 2+1 IgG CrossFab, inverted, with charge modifications; also called EGFRvIII TCB P063.056 with CD3orig
- EC50 (read off the curve) [3]: ~10 nM
